The series deals with the molecule itself. As to the kind of experiment: cross-linking.

B1: His6-tagged Hsp90β CTD (530–724) (domain or fragment)
chain: not shown
B1: the binding result is given as “binds”.
